In US20200031893:

Key:
[1] = system: proNGF mutant SP174-101 (protease cleavage site mutated to VSAR)
proNGF mutant SP174-101 (protease cleavage site mutated to VSAR), sequence (chain, as listed by the source mutant): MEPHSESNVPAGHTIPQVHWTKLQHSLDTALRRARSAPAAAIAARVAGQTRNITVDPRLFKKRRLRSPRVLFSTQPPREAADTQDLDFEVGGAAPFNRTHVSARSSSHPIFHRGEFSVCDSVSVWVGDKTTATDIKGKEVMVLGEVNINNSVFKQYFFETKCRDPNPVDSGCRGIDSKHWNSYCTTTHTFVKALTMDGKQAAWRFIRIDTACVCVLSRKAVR

human wild-type proNGF, sequence (chain, as listed by the source): as the sequence (chain, as listed by the source mutant) above, with V101R, A103K counted along it

Trypsin (Roche, GMP grade)
% ProNGF remaining after tryptic digestion, Trypsin/ProNGF ratio 1/250 (HPLC-UV) (human wild-type proNGF): 0% | % ProNGF remaining after tryptic digestion, Trypsin/ProNGF ratio 1/1000 (HPLC-UV) (human wild-type proNGF): 0% | % ProNGF remaining after tryptic digestion, Trypsin/ProNGF ratio 1/5000 (HPLC-UV) (human wild-type proNGF): 21.5% | % ProNGF remaining after tryptic digestion, Trypsin/ProNGF ratio 1/10000 (HPLC-UV) (human wild-type proNGF): 67.1% | % betaNGF (cleavage yield) after tryptic digestion, Trypsin/ProNGF ratio 1/250 (HPLC-UV) (human wild-type proNGF): 67.9% | % betaNGF (cleavage yield) after tryptic digestion, Trypsin/ProNGF ratio 1/1000 (HPLC-UV) (human wild-type proNGF): 77.9% | % betaNGF (cleavage yield) after tryptic digestion, Trypsin/ProNGF ratio 1/5000 (HPLC-UV) (human wild-type proNGF): 18.6% | % betaNGF (cleavage yield) after tryptic digestion, Trypsin/ProNGF ratio 1/10000 (HPLC-UV) (human wild-type proNGF): 4.6% | % betaNGF Overdigested Forms after tryptic digestion, Trypsin/ProNGF ratio 1/250 (HPLC-UV) (human wild-type proNGF): 25.7% | % betaNGF Overdigested Forms after tryptic digestion, Trypsin/ProNGF ratio 1/1000 (HPLC-UV) (human wild-type proNGF): 12.9% | % betaNGF Overdigested Forms after tryptic digestion, Trypsin/ProNGF ratio 1/5000 (HPLC-UV) (human wild-type proNGF): 6.6% | % ProNGF remaining after tryptic digestion, Trypsin/ProNGF ratio 1/10000 (HPLC-UV) [1]: 1.9% | % betaNGF (cleavage yield) after tryptic digestion, Trypsin/ProNGF ratio 1/10000 (HPLC-UV) [1]: 84.5% | tryptic digestion, trypsin:proNGF 1:10,000 (w/w), 18 h, room temperature, SDS-PAGE [1]: A complete digestion of proNGF mutant to beta-NGF could be observed
